Test results published in the RNAGym collection of RNA variant scans (doi:10.7554/elife.80360).

B1: HDV Ribozyme (parent)
chain: GGCCGGCAUGGUCCCAGCCUCCUCGCUGGCGCCGGCUGGGCAACAUUCCGAGGGGACCGUCCCCUCGGUAAUGGCGAAUGGGACCCA

Variants of: B1
Test: self-cleavage, relative activity (ratio to wild type); higher = more cleavage; co-transcriptional

Going from GGCCGGCAUGGUCCCAGCCUCCUCGCUGGCGCCGGCUGGGCAACAUUCCGAGGGGACCGUCCCCUCGGAAAUGGCGAAUGCGACCCA to GGCCGGCAUGGUCCCAGCCUCCUCCCUGGCGCCGGCUGGGCAACAUUCCGAGGGGACCGUCCCUUCGGUAAUGGCGAAUGGGACCCA, the self-cleavage falls from 0.325 to 0.0369.

Going from GGCCGGCAUGGUCCCAGCCUCCUCGCUGGCGCCGGCUGGGCAACAUUCCGAGGGGACUGUCCCCUCGGUAAUGGCGAAUGCGACCCA to GGCCGGCAUGGUCCCAGCCUCCUCGCUGGCGCCGGCUGGGCAACAUUCCGAGGGGACCGUGCCCUCGGUAAUGGCGAAUGGGUCCCA, the self-cleavage falls from 0.31 to 0.151.

First: GGCCGGCAUGGUCCCAGCCUCCUCGCUGGCCCCGGCUGGGCAACAUUCCGAGGGGACCGGCCCCUCGGUAAUGGCGAAUGGGACCCA
Second: GGCCGGCAUGGUCCCAGCCUCCUCGCUGGCGCCGGCUGGGCAACAUUCCGAGGGGACCCUCCCCUCGAUAAUGGCGAAUGGGACCCA
The self-cleavage of the first is lower: 0.222 for the first, 0.906 for the second.

Going from GGCCGGCAUGGUCCCAGCCUCCUCGCUGGCUCCGGCUGGGCAACAUUCCGAGGGGACCGUCCCCUCGUUAAUGGCGAAUGGGACCCA to GGCCGGCAUGGUCCCAGCCUCCUCGCUGGCGCCGGCAGGGCAACAUUCCGAGGCGACCGUCCCCUCGGUAAUGGCGAAUGGGACCCA, the self-cleavage falls from 0.427 to 0.308.

Going from GGCCGGCAUGGUCCCAGCCUCCUCGCUGGCGCCGGCUGGGCAACACUCCGAGGGGACAGUCCCCUCGGUAAUGGCGAAUGGGACCCA to GGCCGGCAUGGUCCCAGCCUCCUCGCUGGCGCCGGCUGGGCAGCAUUCCGAGGGGACCGUCCCGUCGGUAAUGGCGAAUGGGACCCA, the self-cleavage rises from 0.554 to 0.644.

Compared with GGCCGGCAGGGUCCCAGCCUCCUCGCUGGCGCCGGCUGGGCAAUAUUCCGAGGGGACCGUCCCCUCGGUAAUGGCGAAUGGGACCCA, GGCCGGCAUGGUCCCAGCCCCCUCGCUGGCGCCGGCUGGGCAACAUUCCGAGGGGACCGUCCCCUCGGUAAUGGCCAAUGGGACCCA is lower in self-cleavage: 0.443 for the first, 0.0773 for the second.

First: GGCCGGCAUGGUCCCGGCCUCCUCGCUGGCUCCGGCUGGGCAACAUUCCGAGGGGACCGUCCCCUCGGUAAUGGCGAAUGGGACCCA
Second: GGCCGGCAUGGUCCCAGCCUCCUCGCUGGCGCCGGAUGGGCAACAUCCCGAGGGGACCGUCCCCUCGGUAAUGGCGAAUGGGACCCA
The self-cleavage of the first is higher: 0.375 for the first, 0.0519 for the second.

Compared with GGCCGGCAUGGUCCCAGCCUCCUCGGUGGCGCCGGCUGGGCAACAUUCCGAGGGGACCGUCCCCUCGGUACUGGCGAAUGGGACCCA, GGCCGGCAUGGUCCCAGCCUGCUCGCUGGCGCCGGCUGGGCAACAUUCCGAGGGGACCGUCCCCUCGAUAAUGGCGAAUGGGACCCA is lower in self-cleavage: 0.85 for the first, 0.0707 for the second.

Compared with GGCCGGCAUGGUCCCAGCCUCCUCGCUGGGGCCGGCUGGGCAACAUUCCGAGGGGACCGUCCCCUCGGUAAUGGCGAAUGGGACACA, GGCCGGCAUGGUCCCAGCCUCCUCGCUGGCGCCGGCUGGGCAACAUUCCGAGGGGACCGUCCCCUCGGUAAUGGCGAAAGGGGCCCA is higher in self-cleavage: 0.0308 for the first, 0.375 for the second.

First: GGCCGGCAUGGUCCCAGCCUCCUCGCUGGCGCCGGCUGGGCAACAUUCCGAGGGGACCGUCCCCUCUGUGAUGGCGAAUGGGACCCA
Second: GCCCGGCAUGGUCCCAGCCUCCUCGCUGGCGCCGGCUGGGCAACAUUCCGAGGGGACCGUCCCCUCGGUAAUGGCGAAUGGGACCCA
The self-cleavage of the first is higher: 1.16 for the first, 0.0584 for the second.

First: GGCCGGCAUGGUCCCAGCCUCCUCGCUGGCGCCGGCUGGGCAACUUUCCGAGGGGACCGUCCCCUCGGUAAUGGUGAAUGGGACCCA
Second: GGCCGGCAUGGUCCCAGCCUCCUCGCUGGCGCCGGCUGGGCAACAUUCCGAGGGGACCGUCCCCUCGGUAAUGGCAAUUGGGACCCA
The self-cleavage of the first is lower: 0.321 for the first, 0.673 for the second.

First: GGCCGGCAUGGUCCCAGCCUCCUCGCUAGCUCCGGCUGGGCAACAUUCCGAGGGGACCGUCCCCUCGGUAAUGGCGAAUGGGACCCA
Second: GGCCGGCAUGGUCCCAGCCUCCUCGCUGGCGCCGGUUGGGCAAUAUUCCGAGGGGACCGUCCCCUCGGUAAUGGCGAAUGGGACCCA
The self-cleavage of the first is lower: 0.133 for the first, 0.197 for the second.

First: GGCCGGCAUGGUCCCAGCCUCCUCGCUGGCGCCGGAUGGGCAACAUUCCGAGGGGACCGUUCCCUCGGUAAUGGCGAAUGGGACCCA
Second: GGCCGGCAUGGUCCCAGCCUCCUCGUUGGCGCCGGCUGGGCAACAUUCCGAGGGGACCGUCCCCUCGGUCAUGGCGAAUGGGACCCA
The self-cleavage of the first is lower: 0.138 for the first, 1.08 for the second.

Going from GGCCGGCAUGGUCCCACCCUCCUCGCUGGCGCAGGCUGGGCAACAUUCCGAGGGGACCGUCCCCUCGGUAAUGGCGAAUGGGACCCA to GGCCGGCAUGGUCCCAGCCUCCGCGCUGGCGCCGGCUGGGCAACAUUCCGAGGGGACCGUCCCCACGGUAAUGGCGAAUGGGACCCA, the self-cleavage rises from 0.0437 to 0.886.

First: GGCCGGCAUGGUCCCAGCCACCUCGCUGGCGCCGGCUGGGCAACAUUCCGAGGGGACCGUCCCCUCGGUAAUGGCGAAUGGGAGCCA
Second: GGCCGGCAUGGUCCCAGCCUCCUCGCUGGCGCCGGCAGGGCAACAUUCCGAGGGGACCGUCCCCUCGGUAAUGGCGAAUGGGACCCG
The self-cleavage of the first is higher: 0.196 for the first, 0.0989 for the second.

Compared with GACCGGCAUGGUCCCAGCCUCCUCGCUGGCGCCGGCUGGGCAACAGUCCGAGGGGACCGUCCCCUCGGUAAUGGCGAAUGGGACCCA, GGCCGGCAUGGUCCCAGCCUCCCCGCUGGCGCCGGCUGGGCAACAUUCCGAGGGGCCCGUCCCCUCGGUAAUGGCGAAUGGGACCCA is higher in self-cleavage: 0.0817 for the first, 0.942 for the second.
